Data as given in patent US20230050972A1 (MOMENTA PHARMACEUTICALS, published 2023).
Substitutions are numbered along the chain they refer to. Values joined by “and” are separate entries in the source; they are usually repeats but may differ in a detail not shown here. Equal values may be shown once.

Experiments:
[1] = biological target: T1, in-house generated I domain of α11β1 (human, UniProt Q9UKX5 159-349, limits assumed); assay: ELISA on the human α11β1 I domain
T1 construct: domain: I domain; also called human α11β1 I domain; α11β1 I Domain
T1 sequence (looked up): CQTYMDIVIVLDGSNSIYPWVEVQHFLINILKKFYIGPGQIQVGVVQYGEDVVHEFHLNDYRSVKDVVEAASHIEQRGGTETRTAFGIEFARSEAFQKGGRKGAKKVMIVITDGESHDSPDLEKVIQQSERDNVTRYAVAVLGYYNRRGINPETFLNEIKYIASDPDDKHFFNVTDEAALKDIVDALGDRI

recombinant mouse α11β1 = biological target: T2, recombinant mouse α11β1 (mouse, UniProt P61622 23-1141; P09055 21-728, limits assumed); assay: ELISA, plate coated with recombinant mouse α11β1
T2 construct: also called murine α11β1
Procedure: (§1) 0.25 μg/mL of target antigen (recombinant human or mouse α11β1) was plated in a 96-well plate over night at 4° C. Plates were washed (PBS with 0.1% Tween-20), blocked (PBS with 2% BSA and 0.05% Tween-20) for 1 hour at room temperature and incubated with a range of antibody concentrations for 1 hour at room temperature. Subsequently, plates were washed and incubated with biotinylated anti-rabbit/mouse/human IgG in a 1:1000 dilution buffer and incubated for 1 hour at room temperature. After washing the plates, Streptavidin HRP was added at 1:200 in dilution buffer and incubated for 1 hour at room temperature. Ultra TMB ELISA substrate solution was added and the plates incubated for 5 minutes on a plate shaker. The reaction was stopped by adding stop solution to each well and plates were read at 450 nm.

[2] = biological target: T3, human α11β1 expressed on the surface of CHO-K1 cells (human, UniProt Q9UKX5 23-1188); assay: FACS on CHO-K1 hu α11β1 cells, estimated EC50
Procedure: (§2) 200,000 cells (wild-type CHO-K1 cells or CHO-K1 cells expressing human α11) were incubated with each antibody at desired concentrations in FACS buffer for 30 min at 4° C. Then, the cells were washed with FACS buffer and incubated with secondary antibody at 1:100 dilution for 30 minutes at 4° C. Cells were then washed and fixed with 1% PFA in PBS for 20 minutes at room temperature; washed again and read on a cytometer in FACS buffer.
Binding EC₅₀ was estimated using data from Fluorescence-activated cell sorting (FACS) performed with CHO-K1 hu α11β1 cells. Four out of six mAbs tested had EC₅₀ results in the low nanomolar range (8-P20, 8-G15, 8-J17, 8-l14), while the remaining two mAbs were not as potent (9-G05 and 9-E16; both I domain binders).

recombinant human α11β1 [3] = biological target: T4, recombinant human α11β1 (human, UniProt Q9UKX5 23-1141; P05556 21-728); assay: ELISA, plate coated with recombinant human α11β1
T4 construct: Coated in ELISA; ELISA and SPR material treated as one molecule; also called HIS-tagged human α11β1; integrin alpha 11 beta 1
Procedure: as §1

recombinant human α11β1 [4] = biological target: T4, recombinant human α11β1; assay: SPR (Biacore T200), HIS-tagged human α11β1 captured on anti-HIS, single-cycle kinetics, 1:1 Langmuir fit
Procedure: (§3) The affinity of antibodies for human α11β1 was measured by surface plasmon resonance assay (SPR). Affinity was measured at pH 7.6 and 25° C. with a Biacore T200 instrument. Anti-HIS antibody was immobilized on the SPR sensor surface using EDC/NHS covalent attachment. HIS-tagged human α11β1 was captured on the sensor surface and a single-cycle kinetics assay was used. Increasing concentrations of test antibody were injected in series over the sensor-bound α11β1. Dissociation was monitored for 1000 seconds. A sensor surface with only anti-HIS antibody and a series of blank injections were used to double-reference subtract the data. A 1:1 Langmuir model was fit to the data to estimate the kinetic association and dissociation constants. The affinity (equilibrium dissociation constant) of the interaction was calculated by dividing the kinetic dissociation constant by the kinetic association constant. Between injection cycles α11β1 and bound antibody were removed with an injection of 10 mM glycine at pH 1.5.

recombinant human α11β1 [5] = biological target: T4, recombinant human α11β1; assay: SPR, HIS-tagged human α11β1 captured by anti-HIS, antibody as analyte, single-cycle kinetics
Procedure: as §3
The binding affinity of antibodies for the α11β1 Headpiece and α11β1 I Domain as measured by SPR is shown in FIG. 10A and FIG. 10B, respectively.

[6] = biological target: T3, human α11β1 expressed on the surface of …; assay: FACS titration on Human CHO-α11 cells
Procedure: as §2

Mouse CHO-α11 = Mouse CHO-α11 (mouse, UniProt P61622); assay: FACS titration on Mouse CHO-α11 cells
[7] = biological target: T5, α11β1 on human myofibroblasts (MF) (human, UniProt Q9UKX5 23-1188; P05556 21-798); assay: FACS titration on human myofibroblasts
T5 construct: whole, on cells
Procedure: (§4) Human Pulmonary Fibroblasts (ScienCell) were cultured in complete Fibroblast Growth Medium (ScienCell) until 80% confluent in T-150 flasks. Cells were washed and harvested using Accutase. Cells were seeded into T-150 flasks at 7,500 cells/cm² in complete FGF and cultured for 72 hours. Cells were then washed and starved in serum reduced medium for 24 hours. After starvation, cells were treated with TGFβ-1 (R&D Systems) for 72 hours. Cells were harvested using Accutase and seeded in 96-well conical bottom plates. Cells were blocked with Heat Inactived Fetal Bovine Serum (Gibco) for 30 minutes at 4° C. Cells were then incubated with anti-α11 antibodies at the doses described in each figure for 30 minutes at 4° C. A human anti-α11 antibody (Creative BioLabs) was included as a positive control as well as the appropriate IgG isotype negative controls. Cells were washed twice and incubated with PE conjugated secondary antibodies specific to the IgG class of the anti-α11 antibodies being tested for 30 minutes at 4° C. Cells were washed twice and fixed in 1% PFA for 30 minutes. Cells were acquired on a FACS Verse […]. Data were analyzed by gating on single cells and determining the geometric Mean Fluorescence Intensity (gMFI) in the PE channel for each sample.

[8] = biological target: T1, in-house generated I domain of α11β1; assay: SPR, single-cycle injections of 33, 100 and 300 nM over the a11b1 I Domain
[9] = biological target: T1, in-house generated I domain of α11β1; assay: ELISA on the human α11β1 I domain; remark: listed apart in the source
[10] = biological target: T5, α11β1 on human myofibroblasts (MF); assay: FACS on human myofibroblasts
Procedure: as §4

recombinant human α11β1 [11] = biological target: T4, recombinant human α11β1; assay: ELISA on recombinant human α11β1
Procedure: as §1

T5 sequence (Q9UKX5 23-1188, chain 1 of 2): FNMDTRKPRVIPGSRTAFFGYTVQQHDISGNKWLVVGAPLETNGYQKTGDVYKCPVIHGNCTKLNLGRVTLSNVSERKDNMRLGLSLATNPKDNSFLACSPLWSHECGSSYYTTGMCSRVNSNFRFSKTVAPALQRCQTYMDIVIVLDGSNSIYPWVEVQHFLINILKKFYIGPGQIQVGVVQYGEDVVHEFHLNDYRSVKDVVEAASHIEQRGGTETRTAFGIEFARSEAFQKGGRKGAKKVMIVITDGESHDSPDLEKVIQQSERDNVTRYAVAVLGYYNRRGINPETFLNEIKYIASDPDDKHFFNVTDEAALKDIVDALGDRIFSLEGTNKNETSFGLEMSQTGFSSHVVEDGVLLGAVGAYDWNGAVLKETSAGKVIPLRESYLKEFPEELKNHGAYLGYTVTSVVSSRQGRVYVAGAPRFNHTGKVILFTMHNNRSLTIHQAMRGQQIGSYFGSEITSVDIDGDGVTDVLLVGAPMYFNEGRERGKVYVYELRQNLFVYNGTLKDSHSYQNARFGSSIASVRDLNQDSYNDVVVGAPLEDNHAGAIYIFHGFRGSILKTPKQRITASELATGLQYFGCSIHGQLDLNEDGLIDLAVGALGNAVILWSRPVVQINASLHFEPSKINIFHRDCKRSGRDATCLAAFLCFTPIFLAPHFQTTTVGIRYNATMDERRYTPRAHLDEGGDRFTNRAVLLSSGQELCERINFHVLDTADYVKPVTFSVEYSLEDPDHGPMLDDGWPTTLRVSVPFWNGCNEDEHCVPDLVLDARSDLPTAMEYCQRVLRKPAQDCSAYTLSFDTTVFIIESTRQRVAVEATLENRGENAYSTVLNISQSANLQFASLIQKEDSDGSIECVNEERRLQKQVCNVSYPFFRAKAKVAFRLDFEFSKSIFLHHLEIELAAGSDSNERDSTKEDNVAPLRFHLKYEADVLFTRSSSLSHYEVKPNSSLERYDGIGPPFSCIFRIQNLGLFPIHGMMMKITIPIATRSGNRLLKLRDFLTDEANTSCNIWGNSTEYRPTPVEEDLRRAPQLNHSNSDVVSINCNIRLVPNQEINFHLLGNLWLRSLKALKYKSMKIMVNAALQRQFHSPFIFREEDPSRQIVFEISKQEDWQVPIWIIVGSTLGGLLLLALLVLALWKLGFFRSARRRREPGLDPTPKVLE
T5 sequence (P05556 21-798, chain 2 of 2): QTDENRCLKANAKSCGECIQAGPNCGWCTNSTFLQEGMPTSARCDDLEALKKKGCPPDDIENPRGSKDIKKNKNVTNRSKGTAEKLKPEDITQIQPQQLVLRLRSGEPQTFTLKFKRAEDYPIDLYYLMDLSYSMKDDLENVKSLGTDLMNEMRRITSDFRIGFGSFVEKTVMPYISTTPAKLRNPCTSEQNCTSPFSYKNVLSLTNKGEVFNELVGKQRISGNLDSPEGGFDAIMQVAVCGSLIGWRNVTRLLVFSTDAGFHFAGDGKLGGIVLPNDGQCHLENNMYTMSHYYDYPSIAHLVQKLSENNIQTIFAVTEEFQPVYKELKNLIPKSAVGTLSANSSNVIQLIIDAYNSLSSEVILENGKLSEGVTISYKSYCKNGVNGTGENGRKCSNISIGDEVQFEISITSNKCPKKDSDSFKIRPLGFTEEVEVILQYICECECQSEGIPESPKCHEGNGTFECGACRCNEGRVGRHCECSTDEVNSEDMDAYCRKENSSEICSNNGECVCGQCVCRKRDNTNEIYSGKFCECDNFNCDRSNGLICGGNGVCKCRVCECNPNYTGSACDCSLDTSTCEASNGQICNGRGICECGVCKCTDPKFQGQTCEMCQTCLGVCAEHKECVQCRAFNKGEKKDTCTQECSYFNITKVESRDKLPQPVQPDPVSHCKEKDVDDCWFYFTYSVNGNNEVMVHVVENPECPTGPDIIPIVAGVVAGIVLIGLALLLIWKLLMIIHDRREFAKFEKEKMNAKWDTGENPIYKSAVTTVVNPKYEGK
T3 sequence (Q9UKX5 23-1188): as the sequence (Q9UKX5 23-1188, chain 1 of 2) above
T4 sequence (Q9UKX5 23-1141 limits assumed, chain 1 of 2): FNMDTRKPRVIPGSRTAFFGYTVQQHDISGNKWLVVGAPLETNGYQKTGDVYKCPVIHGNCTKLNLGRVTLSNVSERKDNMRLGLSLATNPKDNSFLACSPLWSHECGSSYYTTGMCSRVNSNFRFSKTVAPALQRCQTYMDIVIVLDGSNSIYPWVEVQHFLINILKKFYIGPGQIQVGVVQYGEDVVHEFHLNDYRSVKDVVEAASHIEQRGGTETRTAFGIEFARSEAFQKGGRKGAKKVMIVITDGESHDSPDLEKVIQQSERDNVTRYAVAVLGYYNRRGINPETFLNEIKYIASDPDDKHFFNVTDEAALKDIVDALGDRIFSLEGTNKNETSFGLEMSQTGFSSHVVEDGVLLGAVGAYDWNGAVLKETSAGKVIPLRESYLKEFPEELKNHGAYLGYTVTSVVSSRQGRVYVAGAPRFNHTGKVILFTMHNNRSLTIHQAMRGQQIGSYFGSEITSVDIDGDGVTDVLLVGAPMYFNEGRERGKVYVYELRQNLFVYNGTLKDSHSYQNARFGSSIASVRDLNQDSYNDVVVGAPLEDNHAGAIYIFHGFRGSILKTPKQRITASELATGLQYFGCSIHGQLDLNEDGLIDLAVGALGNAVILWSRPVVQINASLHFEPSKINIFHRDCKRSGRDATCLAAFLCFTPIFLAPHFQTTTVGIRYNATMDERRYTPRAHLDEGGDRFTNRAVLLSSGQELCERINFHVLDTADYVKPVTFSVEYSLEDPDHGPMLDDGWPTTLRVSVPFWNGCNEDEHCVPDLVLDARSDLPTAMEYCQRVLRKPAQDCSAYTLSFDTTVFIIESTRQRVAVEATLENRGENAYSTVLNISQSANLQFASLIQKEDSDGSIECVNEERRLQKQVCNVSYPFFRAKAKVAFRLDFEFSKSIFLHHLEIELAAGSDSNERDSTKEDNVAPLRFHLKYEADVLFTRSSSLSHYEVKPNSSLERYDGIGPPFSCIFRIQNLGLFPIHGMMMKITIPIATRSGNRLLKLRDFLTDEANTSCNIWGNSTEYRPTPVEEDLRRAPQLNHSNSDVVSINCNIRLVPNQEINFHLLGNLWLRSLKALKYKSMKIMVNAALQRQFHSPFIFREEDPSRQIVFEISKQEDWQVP
T4 sequence (P05556 21-728 limits assumed, chain 2 of 2): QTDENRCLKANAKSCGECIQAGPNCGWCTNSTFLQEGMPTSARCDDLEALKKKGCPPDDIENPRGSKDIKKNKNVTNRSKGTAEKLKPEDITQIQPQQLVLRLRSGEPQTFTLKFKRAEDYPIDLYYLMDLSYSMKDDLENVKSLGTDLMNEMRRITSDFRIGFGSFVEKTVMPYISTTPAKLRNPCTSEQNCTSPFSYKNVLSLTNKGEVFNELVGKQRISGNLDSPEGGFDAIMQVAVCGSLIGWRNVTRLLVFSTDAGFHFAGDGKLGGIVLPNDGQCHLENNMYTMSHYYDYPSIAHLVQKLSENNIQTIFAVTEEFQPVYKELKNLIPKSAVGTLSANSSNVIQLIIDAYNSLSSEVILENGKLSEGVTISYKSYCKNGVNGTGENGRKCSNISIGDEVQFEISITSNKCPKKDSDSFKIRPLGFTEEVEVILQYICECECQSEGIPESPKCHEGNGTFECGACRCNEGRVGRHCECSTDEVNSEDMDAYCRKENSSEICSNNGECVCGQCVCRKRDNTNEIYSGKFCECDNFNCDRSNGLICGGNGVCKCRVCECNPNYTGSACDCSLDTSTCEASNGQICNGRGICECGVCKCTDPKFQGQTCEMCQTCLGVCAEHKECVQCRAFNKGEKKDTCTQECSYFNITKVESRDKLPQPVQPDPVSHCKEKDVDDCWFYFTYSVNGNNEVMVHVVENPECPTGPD
Mouse CHO-α11, sequence (P61622 23-1188): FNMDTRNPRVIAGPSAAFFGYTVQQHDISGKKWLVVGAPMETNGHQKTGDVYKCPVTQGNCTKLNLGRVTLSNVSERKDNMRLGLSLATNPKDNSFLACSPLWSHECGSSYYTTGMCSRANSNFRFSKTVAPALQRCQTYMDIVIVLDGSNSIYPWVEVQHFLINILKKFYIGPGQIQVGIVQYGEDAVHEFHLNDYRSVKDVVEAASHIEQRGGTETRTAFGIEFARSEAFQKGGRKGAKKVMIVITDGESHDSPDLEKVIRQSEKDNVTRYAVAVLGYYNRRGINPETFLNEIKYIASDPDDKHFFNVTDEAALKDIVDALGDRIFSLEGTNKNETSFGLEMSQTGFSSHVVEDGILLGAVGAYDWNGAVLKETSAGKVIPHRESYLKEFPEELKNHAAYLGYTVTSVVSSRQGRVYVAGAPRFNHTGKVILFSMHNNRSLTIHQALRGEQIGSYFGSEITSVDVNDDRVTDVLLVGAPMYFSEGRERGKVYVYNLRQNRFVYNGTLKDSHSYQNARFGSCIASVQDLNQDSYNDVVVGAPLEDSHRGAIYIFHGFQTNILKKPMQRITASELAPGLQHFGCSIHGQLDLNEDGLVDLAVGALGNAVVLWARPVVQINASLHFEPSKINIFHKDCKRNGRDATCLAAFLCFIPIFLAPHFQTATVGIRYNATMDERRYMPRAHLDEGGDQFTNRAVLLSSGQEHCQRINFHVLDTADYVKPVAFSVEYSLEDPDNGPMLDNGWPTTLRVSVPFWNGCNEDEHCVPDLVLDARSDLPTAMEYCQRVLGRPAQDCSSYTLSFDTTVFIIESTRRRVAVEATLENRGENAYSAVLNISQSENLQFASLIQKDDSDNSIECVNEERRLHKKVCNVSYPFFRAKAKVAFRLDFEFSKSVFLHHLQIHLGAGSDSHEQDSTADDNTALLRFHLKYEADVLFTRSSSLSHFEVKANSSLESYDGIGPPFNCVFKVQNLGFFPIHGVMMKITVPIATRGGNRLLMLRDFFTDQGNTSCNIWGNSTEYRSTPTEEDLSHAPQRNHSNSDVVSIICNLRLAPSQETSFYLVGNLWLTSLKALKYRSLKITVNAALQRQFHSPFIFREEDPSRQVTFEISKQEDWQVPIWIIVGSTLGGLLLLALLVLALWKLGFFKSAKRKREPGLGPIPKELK

B1: 8-I14 (antibody, V domains shown)
VH: EVQLQQSGPELVKPGASVKKSCKASGYTFTDYYMHWVKQKPGQGLEWIGKIYPGSGNTHYNEKFKGKATLTADKSSSTAYMQLSSLTSEDSAVYFCATNYYGYRAMNYWGQGSSVTVSS
VL: DIHLTQSPSSLSASLGERISLTCRASQDIYISLNWFQQKPDGTIKLLIYGTSSLDSGVPKRFSGSRSGSDYSLTISSLESEDFADYYCLQYASSPYTFGGGTKLEIK
notes: mouse hybridoma IgG; also called 8-l14; 8114
Question: Does B1 bind [1]?
Answer: Result: no binding (tested: 1 µg/mL)

Question: And the “EC50 (read off the curve)” value (recombinant mouse α11β1)?
Answer: Its value is about 0.006 µg/mL.

Question: And the EC50 [2]?
Answer: Its EC50 is 1.22 µg/mL and 8.1 nM.

Question: What about the “EC50 (read off the curve)” value (recombinant human α11β1 [3]) of the same binder?
Answer: The value was about 0.2 ng/mL.

B2: 9-G05 (antibody, V domains shown)
VH: EVQLQQSGPELVKPGASVKIPCKASGYTFPDYNMDWVKQSHGKSLEWIGYINPDNGGTIYNQKFKGKATLTVDKSSSTAYMELRSLTSEDTAVYYCARLDSSGYGYYAMDYWGQGTSVTVSS
VL: DIVLTQSPASLAVSLGQRATISCRASESVDNYGISFMHWYQQKPGQPPKLLIYRASNLDSEIPARFSGSGSRTDFTLTIDPVETDDVATYYCQQSYKDPRTFGGGTKLEIK
notes: mouse hybridoma IgG
Question: With B2 as the binder, how does the koff (recombinant human α11β1 [4]) read?
Answer: Its koff is 4.99e-05 s⁻¹.

Question: And the kon (recombinant human α11β1 [4])?
Answer: Its kon is 17500 M⁻¹ s⁻¹.

Question: What about the “EC50 (read off the curve)” value [1] of the same binder?
Answer: The value was about 0.3 ng/mL.

Question: And the “EC50 (read off the curve)” value (recombinant mouse α11β1)?
Answer: Its value is about 0.03 µg/mL.

Question: What about the Kd (recombinant human α11β1 [5]) of the same binder?
Answer: Its Kd is 2.85 nM.

Question: And the EC50 [2]?
Answer: The EC50 was 21 µg/mL and 140 nM.

Question: What about the “EC50 (read off the curve)” value (recombinant human α11β1 [3]) of the same binder?
Answer: Its value is about 10 ng/mL.

Question: And the EC50 [6]?
Answer: The EC50 was 187 nM.

B3: 8-P20 (antibody, V domains shown)
VH: KVMLVESGGALVKPGGSLKLSCVASGFTFSNYAMSWVRQTPEKRLEWVATISSGGYYTYYPDSVKGRFTISRDNARNTLFLQMSSLRSEDTAMFYCAREDDYGRYSYTMDYWGQGTSVTVSS
VL: DVVMTQTPLSLPVSLGDQVSISCRCSQSLVHSNGNTYLHWYLQKPGQSPQLLIYKISNRFSGVPDRFSGSGSGTDFTLKISRVEAEDLGVYFCSQSTHVPYTFGGGTELEIK
notes: mouse hybridoma IgG
Question: Does B3 bind [1]?
Answer: Result: no binding (tested: 1 µg/mL)

Question: Does B3 bind (recombinant mouse α11β1)?
Answer: Result: no binding (tested: 1 µg/mL)

Question: What about the EC50 [2] of the same binder?
Answer: The EC50 was 0.12 µg/mL and 0.8 nM.

Question: And the “EC50 (read off the curve)” value (recombinant human α11β1 [3])?
Answer: Its value is about 0.03 ng/mL.

B4: 1994_01_C07 (antibody, V domains shown)
VH: QVQLVQSGAEVKKPGASVKVSCKASGYTFTSYGISWVRQAPGQGLEWMGWISAYNGNTNYAQKLQGRVTMTTDTSTSTAYMELRSLRSDDTAAYYCARVTGITGTTIDPWGQGTMVTVSS
VL: DIQMTQSPSSLSASVGDRVTITCRASQSISSYLNWYQQKPGKAPKLLIYDASSLESGVPSRFSGSGSGTEFTLTISSLQPDDFAVYYCQQYNNWPQTFGQGTKVEIK
notes: fully human, from phage display, scFv converted to IgG; kappa
Question: Which results are given for B4?
Answer: koff (recombinant human α11β1 [4]): 0.000289 s⁻¹; kon (recombinant human α11β1 [4]): 374000 M⁻¹ s⁻¹; EC50 (Mouse CHO-α11): 29 nM; EC50 [7]: 0.53 µg/mL and 3.5 nM; binding result [8]: no binding (tested: 300 nM); Kd (recombinant human α11β1 [5]): 0.77 nM; EC50 [6]: 7.75 nM

B5: 8-G15 (antibody, V domains shown)
VH: EVQLQQSGPELVKPGASVRISCKASGYTFTDYYIHWVKQKPGQGLECIGEIYPGTDNTYYSKKFRGKATLTADKSSDTAYMQLSSLTSEDSAVYFCARGDYYRGYFDVWGAGTTVTVSS
VL: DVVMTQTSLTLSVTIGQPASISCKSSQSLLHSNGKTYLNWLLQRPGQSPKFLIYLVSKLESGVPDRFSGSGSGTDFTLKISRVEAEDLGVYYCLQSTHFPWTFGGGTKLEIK
notes: mouse hybridoma IgG
Question: Does B5 bind [1]?
Answer: Result: no binding (tested: 1 µg/mL)

Question: Does B5 bind (recombinant mouse α11β1)?
Answer: Result: no binding (tested: 1 µg/mL)

Question: What about the EC50 [2] of the same binder?
Answer: Its EC50 is 0.22 µg/mL and 1.5 nM.

Question: What about the “EC50 (read off the curve)” value (recombinant human α11β1 [3]) of the same binder?
Answer: Its value is about 0.03 ng/mL.

B6: 8-J17 (antibody, V domains shown)
VH: QVQLQQSGAELAKPGASVKMSCKASGYTFTNYWMHWVKQRPGQGLEWIGYINPNNGYTEYNQRFKDKATLTADRSSTTAYMQLSSLTSEDSAVYYCARSDIITTDYWGQGTTLTVSS
VL: B3 VL with V19A, C25S, H31Y, Q50K, I56V, Y101W, E108K
notes: mouse hybridoma IgG
Question: Does B6 bind [1]?
Answer: Result: no binding (tested: 1 µg/mL)

Question: Does B6 bind (recombinant mouse α11β1)?
Answer: Result: no binding (tested: 1 µg/mL)

Question: And the EC50 [2]?
Answer: Its EC50 is 0.33 µg/mL and 2.2 nM.

Question: What about the “EC50 (read off the curve)” value (recombinant human α11β1 [3]) of the same binder?
Answer: Its value is about 0.1 ng/mL.

B7: 40G10H11 (antibody, V domains shown)
VH: AVQLVESGGGLVQPGRSLKLSCAASRITFTDYYMAWVRQAPTKGLEWVATISSDGGDTFYRDSVKGRFTISRDNAKSTLYLQMVSLRSEDTATYYCSTDRGAQFGYWGQGTLVTVSS
VL: DIQMTQSPSFLSASVGDRVSINCKASQNVHENLNWYQQKLGEAPKRLIYNTNNLQTGIPSRFSGSGSGADYTLTISSLQPEDFATYFCLQHNAFPYTFGPGTKLELK
notes: rat hybridoma mAb
Question: Does B7 bind [9]?
Answer: Result: no binding (tested: 2 µg/ml)

B8: 24E4G6 (antibody, V domains shown)
VH: EVQLVESGGSLVQPGGSLKLSCVASGYTFSNYWMDWVRQSPGKSLEWIGEINTDGRRTNYAPSIKDRFTISRDNAKSTLYLQMSNVKSDDTAIYYCTILRVYPHYFDYWGQGVMVTVSS
VL: DVVMTQTPPSLSVAIGQSVSISCKSSQSLVYSDGETYLHWFLQSPGRSPKRLIYHVSNLGSGVPDRFSGTGSLTDFTLRISRVEAEDLGVYYCAQTTHFPPTFGAGTKLELK
notes: rat hybridoma mAb
Question: Does B8 bind [10]?
Answer: Result: binds

Question: Does B8 bind [9]?
Answer: Result: no binding (tested: 2 µg/ml)

Question: Does B8 bind (recombinant human α11β1 [11])?
Answer: Result: binds
